# In article PMC6468871:
# T1: RAD51 WT protein phosphorylated in vitro by c-MET kinase (human)
# T1 chain: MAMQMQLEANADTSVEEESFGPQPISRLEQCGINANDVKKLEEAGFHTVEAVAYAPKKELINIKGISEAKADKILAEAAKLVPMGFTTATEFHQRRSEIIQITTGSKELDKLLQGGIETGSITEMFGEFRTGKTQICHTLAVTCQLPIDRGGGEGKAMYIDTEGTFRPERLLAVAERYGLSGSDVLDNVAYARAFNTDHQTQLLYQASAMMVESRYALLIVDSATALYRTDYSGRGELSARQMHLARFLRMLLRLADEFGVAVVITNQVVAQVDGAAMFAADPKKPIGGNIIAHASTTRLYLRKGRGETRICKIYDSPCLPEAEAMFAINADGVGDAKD
# B1: RAD51 WT protein phosphorylated in vitro by c-MET kinase (natural protein)
# chain: T1 chain
# modifications: here or on the partner: phosphotyrosine at Y159, Y191, Y205 and Y315 (sites the paper concludes for c-MET; extent at each site not stated); phosphotyrosine at Y159, Y191, Y205 and Y315 (sites the paper concludes for c-MET; extent at each site not stated)
# Molecular target: T1, RAD51 WT protein phosphorylated in …
# Test: cross-linking; RAD51 10 uM with ATP 2 mM, with or without kinase-active c-MET (0.1 uM) and PHA665752 (1 uM); 20 mM BS3, room temperature, 30 min, stopped with Tris 1 M pH 8.0; SDS-PAGE 10% and western blot with anti-RAD51
# Settings: remark: other sources report otherwise
binder,measurement,value
B1,fold of multimer forms against non-phosphorylated RAD51,1.6 fold
